Assay results taken from article PMC4198062.

Target: c-Jun (UniProt P05412)
Assay: single molecule FRET, surface-immobilized PAGE4
Settings: reference: PAGE4 P102C expressed alone (nonphosphorylated); sites T51

Substance: PAGE4 (from UniProt O60829) PAGE4 P102C coexpressed with GST-HIPK1 in E. coli
- other: percent of molecules shifted to low FRET with c-Jun: weaker; reference 70
